The text below walks through data of publication PMC4582189.

As usually defined, the pKd is the Kd on a negative log10 scale, so that one unit is a factor of ten.

pKd: −log10 of the molar value.

Experiment [1] deals with T1, CD13 on the surface of mouse articular chondrocytes (mouse (endogenous in primary articular chondrocytes)) (UniProt P97449).
T1 sequence: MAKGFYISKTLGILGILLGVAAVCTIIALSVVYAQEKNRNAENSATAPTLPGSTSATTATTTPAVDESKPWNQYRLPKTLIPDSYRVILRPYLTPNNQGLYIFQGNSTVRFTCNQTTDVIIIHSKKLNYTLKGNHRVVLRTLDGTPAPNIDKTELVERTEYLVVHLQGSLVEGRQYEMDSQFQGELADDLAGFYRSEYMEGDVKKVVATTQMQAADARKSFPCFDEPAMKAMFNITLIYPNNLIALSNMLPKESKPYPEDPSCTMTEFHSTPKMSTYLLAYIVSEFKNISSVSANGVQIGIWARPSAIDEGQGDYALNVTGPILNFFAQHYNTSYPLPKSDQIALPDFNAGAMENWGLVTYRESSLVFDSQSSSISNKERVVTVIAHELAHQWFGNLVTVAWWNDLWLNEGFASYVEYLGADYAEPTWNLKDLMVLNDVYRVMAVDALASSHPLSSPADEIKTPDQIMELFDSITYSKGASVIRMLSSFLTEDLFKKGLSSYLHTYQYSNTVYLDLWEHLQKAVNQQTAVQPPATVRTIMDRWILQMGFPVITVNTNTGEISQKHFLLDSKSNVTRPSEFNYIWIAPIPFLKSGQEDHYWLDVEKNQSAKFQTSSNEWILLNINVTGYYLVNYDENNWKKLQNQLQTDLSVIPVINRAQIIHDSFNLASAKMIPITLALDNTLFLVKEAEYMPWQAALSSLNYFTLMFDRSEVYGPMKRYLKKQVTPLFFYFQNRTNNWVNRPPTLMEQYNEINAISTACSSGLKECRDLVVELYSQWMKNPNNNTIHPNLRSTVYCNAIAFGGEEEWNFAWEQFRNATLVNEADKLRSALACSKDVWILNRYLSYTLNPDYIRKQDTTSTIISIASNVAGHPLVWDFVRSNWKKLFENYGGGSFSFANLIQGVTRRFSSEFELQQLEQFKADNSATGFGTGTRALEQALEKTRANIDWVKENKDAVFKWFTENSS

In experiment [2] the target is T1, CD13 on the surface of mouse articular chondrocytes (mouse (endogenous in primary articular chondrocytes)). The source holds these as a separate data set.
The target in experiment [3] is Human recombinant CD13 (human) (UniProt P15144). Description: SPR; Biacore 3000; human recombinant CD13 amine-coupled to a CM5 chip (11,949 RU, 10 mM sodium acetate pH 5.0); analytes in HBS-EP (10 mM HEPES pH 7.4, 150 mM NaCl, 3 mM EDTA, 0.005% P20), 5 µl/min, 5 min injection, 8 min dissociation; 14-3-3ε 10 µM, antibodies 1 µg/ml; kinetics with 0, 5, 7.5, 10, 15, 20 µM 14-3-3ε; blank surface subtracted. (SPR reads the build-up and loss of mass on a sensor chip optically.)

Experiment [4] has the same target.

UniProt P15144, sequence (P15144 whole entry): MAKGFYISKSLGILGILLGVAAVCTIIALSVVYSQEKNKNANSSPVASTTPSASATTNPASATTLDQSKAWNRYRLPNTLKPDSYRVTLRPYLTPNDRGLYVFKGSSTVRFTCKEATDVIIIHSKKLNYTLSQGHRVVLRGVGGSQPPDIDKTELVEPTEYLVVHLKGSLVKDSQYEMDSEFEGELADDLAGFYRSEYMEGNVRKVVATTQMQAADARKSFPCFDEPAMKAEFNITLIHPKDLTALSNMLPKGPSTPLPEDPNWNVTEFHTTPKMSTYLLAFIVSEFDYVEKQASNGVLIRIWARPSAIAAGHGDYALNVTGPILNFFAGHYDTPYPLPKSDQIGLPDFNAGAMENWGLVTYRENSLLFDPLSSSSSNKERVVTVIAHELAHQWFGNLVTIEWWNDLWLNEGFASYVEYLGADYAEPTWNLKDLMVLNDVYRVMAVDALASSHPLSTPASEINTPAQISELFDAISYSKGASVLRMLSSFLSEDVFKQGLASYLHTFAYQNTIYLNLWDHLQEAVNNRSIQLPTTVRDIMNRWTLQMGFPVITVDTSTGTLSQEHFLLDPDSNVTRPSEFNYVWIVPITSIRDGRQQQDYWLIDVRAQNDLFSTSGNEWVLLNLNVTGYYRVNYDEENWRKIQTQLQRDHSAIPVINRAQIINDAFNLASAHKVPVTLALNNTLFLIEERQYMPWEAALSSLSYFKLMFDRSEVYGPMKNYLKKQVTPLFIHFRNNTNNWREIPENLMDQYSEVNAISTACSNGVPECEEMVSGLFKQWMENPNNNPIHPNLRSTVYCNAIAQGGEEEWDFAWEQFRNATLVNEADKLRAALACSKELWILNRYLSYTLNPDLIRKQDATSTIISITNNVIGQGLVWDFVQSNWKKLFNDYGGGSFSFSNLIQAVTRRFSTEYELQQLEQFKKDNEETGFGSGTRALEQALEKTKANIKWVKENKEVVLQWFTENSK

In experiment [1], “Recombinant human 14-3-3ε (from UniProt P62258 1-255) (natural protein)” gave a decrease of 14-3-3ε (1 µg/ml)-induced MMP-13 mRNA expression (qRT-PCR) in murine chondrocytes by anti-CD13 blocking antibody AB108310, 1 and 5 µg/ml (47% to 88%) of 88%; a decrease of 14-3-3ε (1 µg/ml)-induced MMP-13 release (ELISA) in murine chondrocytes by anti-CD13 blocking antibody AB108310, 1 and 5 µg/ml (29% to 32%, P>0.05) of 32%; an inhibition of 14-3-3ε (1 µg/ml)-induced MMP-3 mRNA expression (qRT-PCR) in murine chondrocytes by anti-CD13 blocking antibody AB108310, 1 and 5 µg/ml (64% to 90%) of 90%; an inhibition of 14-3-3ε (1 µg/ml)-induced MMP-3 protein release (ELISA) in murine chondrocytes by anti-CD13 blocking antibody AB108310, 1 and 5 µg/ml (61% to 87%) of 87%. Moreover, in experiment [2], the decrease of 14-3-3ε (1 µg/ml)-induced MMP-13 mRNA synthesis (qRT-PCR) in mouse chondrocytes by the synthetic CD13 peptide EFNpYVW, 0.5 and 5 µg/ml (30% to 56%) worked out at 56%; the inhibition of 14-3-3ε (1 µg/ml)-induced MMP-3 mRNA production (qRT-PCR) in mouse chondrocytes by the synthetic CD13 peptide EFNpYVW, 0.5 and 5 µg/ml (48% to 62%) amounted to 62%. Further, in experiment [3], the pKd was 5.61 and the response (resonance units) at 10 µM turned out to be 78 RU. Moreover, in experiment [4], the decrease of 14-3-3ε-induced MMP-3 mRNA expression (qRT-PCR) in human osteoarthritis chondrocytes (endogenous human CD13) by anti-CD13 blocking antibody SJ1D1, 1 µg/ml turned out to be 43% and the decrease of 14-3-3ε-induced MMP-3 protein release (ELISA) in human osteoarthritis chondrocytes (endogenous human CD13) by anti-CD13 blocking antibody SJ1D1, 1 µg/ml was 59%.
